US10471162B2, “Collagen targeted imaging probes” (priority 2014, dated 2019)

Key:
in vivo = format: in vivo, mouse; details: male, C57/BL6, mouse, in vivo, iv, total radioactivity, Biodistribution % ID/g
Description: (§1) Pulmonary fibrosis was induced in 7-8-week-old male C57/BL6 mice by transtracheal administration of bleomycin (BM; 2.5 U/kg) in 50 μL of PBS under direct vision using a small cervical incision. Sham animals received only PBS. Animals were placed in a small-animal PET/SPECT/CT scanner (Triumph; TriFoil Imaging), equipped with inhalation anesthesia and heating pad. Each animal was anesthetized with isoflurane (4% for induction, 2-2.5% for maintenance in medical air) and body temperature was kept at 37-38° C. using a heating pad. The femoral vein was cannulated for intravenous delivery of the PET agent. Each mouse was injected with approximately 0.1 mL and 20-50 μCi of ^64Cu-CBP(n), 0.1 mL and 20-50 μCi of ^68Ga-CBP(n) and 0.1 mL and 10-20 μCi of Al^18F-CBP(n) in a 18 mM solution of sucrose in water, followed by saline flush. […] The lungs, blood, urine, heart, liver, left rectus femoris muscle, spleen, small intestine, kidneys, left femur bone were collected from all animals. The tissues were weighed, and radioactivity in each tissue was measured on a gamma counter (CobraII Auto gamma; Packard). The radioactivity in the lung was reported as percent injected dose per gram corrected with the average sham weight, which was calculated by dividing the counts of ^64Cu per average sham tissue weight in gram by the total of counts of the injected dose. The radioactivity in every other tissue was reported as percent injected dose per gram (% ID/g), which was calculated by dividing the counts of ^64Cu per gram of tissue by the total of counts of the injected dose. A p-value of less than 0.05 was considered significant. Uncertainties are expressed as the standard error of the mean.

[1] = test system: pulmonary fibrosis, C57/BL6 mice (bleomycin or sham); experiment: in vivo; format: in vivo, mouse; details: male, C57/BL6, mouse, in vivo, iv, 2.5 h
Description: as §1

[2] = test system: pulmonary fibrosis, low dose bleomycin, vascular leak model; details: male, C57Bl/6, mouse, in vivo, iv
Description: Adult male C57Bl/6 mice were administered a single intratracheal dose of low dose bleomycin at 0.1 U/kg (low dose), in a total volume of 50 μl sterile saline. FTY720 was administered intraperitoneally to the mice at 1 mg/kg three times a week. To effect treatment in the low dose bleomycin, vascular leak model, the therapeutic murine antibody 3G9 (alpha-v-beta6 blocking antibody) and 1E6 (matched isotype control antibody) were used. Antibodies were injected into mice intraperitoneally three times week at a concentration of 1 mg/kg. All administrations of FTY720 and antibodies were initiated on day 0, ˜30 minutes before bleomycin challenge and continued throughout the duration of the experiments. Animals were placed in a small-animal PET/SPECT/CT scanner (Triumph; TriFoil Imaging), equipped with inhalation anesthesia and heating pad. […] Instrument calibration was performed with phantoms containing small known amounts of radioactivity. […] Reconstructed PET/CT data were quantitatively evaluated using AMIDE software package (Loening and Gambhir, 2003). […] The radioactivity concentration within organs was obtained from mean pixel values within the VOI volume and converted to counts per milliliter per minute and then divided by the injected dose (ID) to obtain an imaging VOI-derived percentage of the injected radioactive dose per cubic centimeter of tissue (% ID/cc). […]

Which tissue uptake at 2.5 h (in vivo; blood) does the source give for CC(C)C[C@H](NC(=O)[C@@H]1CSSC[C@H](NC(=O)[C@H](Cc2c[nH]cn2)NC(=O)[C@H](Cc2c[nH]c3ccccc23)NC(=O)[C@H](CCCCNC(=O)CNC(=O)CCC(C(=O)O)N2CCN(CC(=O)O)CCN(CC(=O)O)CC2)NC(=O)CNC(=O)CCC(C(=O)O)N2CCN(CC(=O)O)CCN(CC(=O)O)CC2)C(=O)N[C@@H]([C@@H](C)O)C(=O)N[C@@H]([C@@H](C)O)C(=O)N[C@@H](CCCCNC(=O)CCC(C(=O)O)N2CCN(CC(=O)O)CCN(CC(=O)O)CC2)C(=O)N[C@@H](Cc2ccccc2)C(=O)N2CCC[C@H]2C(=O)N[C@@H](Cc2c[nH]cn2)C(=O)N[C@@H](Cc2c[nH]cn2)C(=O)N[C@@H](Cc2ccc(O)cc2)C(=O)N1)C(=O)N[C@@H](Cc1ccc(O)cc1)C(=O)N[C@@H](Cc1ccc(-c2ccccc2)cc1)C(N)=O (single isomer, unassigned) [CBP8] here?
The tissue uptake at 2.5 h was 0.512 ± 0.181 %ID/g.

And the tissue uptake at 2.5 h (in vivo; bone)?
The tissue uptake at 2.5 h was 1.11 ± 0.594 %ID/g.

And the tissue uptake at 2.5 h (in vivo; heart)?
Its tissue uptake at 2.5 h is 0.242 ± 0.059 %ID/g.

And the tissue uptake at 2.5 h (in vivo; kidney)?
Its tissue uptake at 2.5 h is 30 ± 4.59 %ID/g.

And the tissue uptake at 2.5 h (in vivo; liver)?
The tissue uptake at 2.5 h was 0.95 ± 0.127 %ID/g.

What about the tissue uptake at 2.5 h (in vivo; muscle) of the same compound?
Its tissue uptake at 2.5 h is 0.567 ± 0.247 %ID/g.

What about the tissue uptake at 2.5 h (in vivo; sm. intestine) of the same compound?
Its tissue uptake at 2.5 h is 0.42 ± 0.086 %ID/g.

And the tissue uptake at 2.5 h (in vivo; spleen)?
Its tissue uptake at 2.5 h is 0.462 ± 0.047 %ID/g.

What about the “Biodistribution % ID/g, blood” value [1] of the same compound?
Its value is 0.569 ± 0.102 % ID/g.

And the “Biodistribution % ID/g, bone” value [1]?
The value was 1.117 ± 0.347 % ID/g.

And the “Biodistribution % ID/g, heart” value [1]?
The value was 0.340 ± 0.032 % ID/g.

And the “Biodistribution % ID/g, kidney” value [1]?
Its value is 41.063 ± 5.830 % ID/g.

And the “Biodistribution % ID/g, liver” value [1]?
The value was 1.189 ± 0.113 % ID/g.

And the “Biodistribution % ID/g, muscle” value [1]?
Its value is 0.927 ± 0.422 % ID/g.

What about the “Biodistribution % ID/g, sm. intestine” value [1] of the same compound?
The value was 0.830 ± 0.197 % ID/g.

And the “Biodistribution % ID/g, spleen” value [1]?
The value was 0.659 ± 0.141 % ID/g.

And the “mean lung PET activity” value [2]?
Its value is 2.07 ± 0.53 % ID/cc.
